Patent US20110130348

How the values were obtained:
[1] = biological target: HP1 with LAP2 fused to its C-terminus (LAP2-C)
[2] = biological target: LAP2-HP1 fusion protein (LAP2 at the N-terminus of HP1)
[3] = biological target: T1, LAP1 (rationally designed Lp1A acceptor peptide)
T1 chain: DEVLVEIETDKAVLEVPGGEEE

[4] = biological target: T2, synthetic LAP2 peptide (Lp1A acceptor peptide 2)
T2 chain: GFEIDKVWYDLDA

B1: Escherichia coli lipoic acid ligase (Lp1A) (protein)
chain: MSTLRLLISDSYDPWFNLAVEECIFRQMPATQRVLFLWRNADTVVIGRAQNPWKECNTRRMEEDNVRLARRSSGGGAVFHDLGNTCFTFMAGKPEYDKTISTSIVLNALNALGVSAEASGRNDLVVKTVEGDRKVSGSAYRETKDRGFHHGTLLLNADLSRLANYLNPDKKKLAAKGITSVRSRVTNLTELLPGITHEQVCEAITEAFFAHYGERVEAEIISPNKTPDLPNFAETFARQSSWEWNFGQAPAFSHLLDERFTWGGVELHFDVEKGHITRAQVFTDSLNPAPLEALAGRLQGCLYRADMLQQECEALLVDFPEQEKELRELSAWMAGAVR
percent conversion to lipoylated product (HPLC, 50 nM Lp1A, 1 h) [1]: When fused to the C- rather than N-terminus of HP1, the activity of LAP2 decreased somewhat, but was still higher than all other LAP sequences at the N-terminus | percent conversion to lipoylated product (HPLC, 50 nM Lp1A, 1 h) [2]: As in the cellular assays, LAP2 is the best sequence | Km (estimate from HPLC measurements) [3]: the Km for LAP1 is estimated to be >200 µM | Km of Lp1A-catalyzed lipoylation (HPLC, Michaelis-Menten) [4]: 13.32 ± 1.78 µM | catalytic efficiency (kcat/Km) for lipoic acid ligation [4]: The catalytic efficiency (kcat/Km) 0.99 µM^-1 min^-1) | kcat of Lp1A-catalyzed lipoylation (HPLC, Michaelis-Menten) [4]: 0.22 ± 0.01 s⁻¹
